The source of these data is patent EP2107116A2.

Test [1] deals with p97 (melanotransferrin) (UniProt P08582). Kind of test: p97-coated plate, scFv-BLA culture broth, bound BLA activity (nitrocefin, 490 nm); ratio T1 (1 h dissociation)/T0 of mutant over parent; pH 7.4.
Test [2] shares this target. The test can be described thus: p97-coated plate, scFv-BLA culture broth, bound BLA activity (nitrocefin, 490 nm); ratio T1 (1 h dissociation)/T0 of mutant over parent; pH 6.5.

Chain of UniProt P08582 (P08582 20-709 limits assumed): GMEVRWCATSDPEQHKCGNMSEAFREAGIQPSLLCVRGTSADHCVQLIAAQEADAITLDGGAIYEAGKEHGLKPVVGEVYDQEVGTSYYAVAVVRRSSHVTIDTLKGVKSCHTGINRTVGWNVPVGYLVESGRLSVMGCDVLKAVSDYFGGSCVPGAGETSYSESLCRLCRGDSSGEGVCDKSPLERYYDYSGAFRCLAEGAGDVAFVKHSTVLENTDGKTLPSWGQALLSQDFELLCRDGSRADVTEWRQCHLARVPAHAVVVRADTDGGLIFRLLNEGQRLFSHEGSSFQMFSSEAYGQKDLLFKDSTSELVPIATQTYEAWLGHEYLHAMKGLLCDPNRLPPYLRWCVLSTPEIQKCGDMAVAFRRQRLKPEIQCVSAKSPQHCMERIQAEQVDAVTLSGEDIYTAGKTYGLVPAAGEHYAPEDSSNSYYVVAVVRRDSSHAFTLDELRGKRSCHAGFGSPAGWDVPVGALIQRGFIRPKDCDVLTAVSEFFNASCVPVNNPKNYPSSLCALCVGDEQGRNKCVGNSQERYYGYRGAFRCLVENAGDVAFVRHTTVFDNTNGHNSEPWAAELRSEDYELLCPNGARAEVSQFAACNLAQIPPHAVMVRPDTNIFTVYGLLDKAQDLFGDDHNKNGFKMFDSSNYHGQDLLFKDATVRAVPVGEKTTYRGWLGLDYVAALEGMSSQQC

Regarding “ME43 (SGN-17 scFv-BLA, heavy chain K64 to His)”, the Index pH7.4 with p97 (melanotransferrin) [1] was 0.61. In the test with p97 (melanotransferrin) [2], the Index pH6.5 amounted to 0.65.

For the substance “ME44 (SGN-17 scFv-BLA, heavy chain R97 to His)”, the Index pH7.4 with p97 (melanotransferrin) [1] amounted to 0.24. As to “ME46 (SGN-17 scFv-BLA, heavy chain T99 to His)”, the Index pH7.4 with p97 (melanotransferrin) [1] is 0.38. For the same substance, the Index pH6.5 with p97 (melanotransferrin) [2] was determined as 0.09. For “ME47 (SGN-17 scFv-BLA, heavy chain L100 to His)”, the Index pH7.4 with p97 (melanotransferrin) [1] worked out at 0.24.

In the case of “ME48 (SGN-17 scFv-BLA, heavy chain A101 to His)”, in the test with p97 (melanotransferrin) [1], the Index pH7.4 amounted to 0.49. Further, the Index pH6.5 with p97 (melanotransferrin) [2] was determined as 0.33. For the substance “ME50 (SGN-17 scFv-BLA, heavy chain Y103 to His)”, the Index pH7.4 in the test with p97 (melanotransferrin) [1] amounted to 0.33. Same read-out and setting: the value for “ME51 (SGN-17 scFv-BLA, heavy chain Y104 to His)” was 0.26. Take “ME53 (SGN-17 scFv-BLA, heavy chain M106 to His)”: in the test with p97 (melanotransferrin) [1], the Index pH7.4 stood at 0.97. In addition, in the test with p97 (melanotransferrin) [2], the Index pH6.5 is 0.8. With “ME54 (SGN-17 scFv-BLA, heavy chain D107 to His)”, the Index pH7.4 in the test with p97 (melanotransferrin) [1] came to 0.41. Besides, the Index pH6.5 with p97 (melanotransferrin) [2] turned out to be 0.7. For “ME55 (SGN-17 scFv-BLA, heavy chain Y108 to His)” the same measures were 0.8 and 0.7. As to “ME56 (SGN-17 scFv-BLA, heavy chain W109 to His)”, the Index pH7.4 with p97 (melanotransferrin) [1] came out at 0.57. In addition, the Index pH6.5 with p97 (melanotransferrin) [2] came to 0.41.

As to “ME58 (SGN-17 scFv-BLA, light chain R58 to His)”, the Index pH7.4 with p97 (melanotransferrin) [1] was 0.92. The Index pH6.5 with p97 (melanotransferrin) [2] is 0.76. Consider “ME59 (SGN-17 scFv-BLA, light chain Q94 to His)”, for which the Index pH7.4 with p97 (melanotransferrin) [1] was 0.28. Turning to “ME60 (SGN-17 scFv-BLA, light chain S95 to His)”, the Index pH7.4 with p97 (melanotransferrin) [1] was found to be 1.04. Moreover, the Index pH6.5 with p97 (melanotransferrin) [2] was 1.09.

As for “ME61 (SGN-17 scFv-BLA, light chain T96 to His)”, in the test with p97 (melanotransferrin) [1], the Index pH7.4 was determined as 0.82. The Index pH6.5 with p97 (melanotransferrin) [2] is 0.81. Consider “ME63 (SGN-17 scFv-BLA, light chain V98 to His)”, for which the Index pH7.4 with p97 (melanotransferrin) [1] stood at 0.21.

Turning to “ME64 (SGN-17 scFv-BLA, light chain P99 to His)”, the Index pH7.4 with p97 (melanotransferrin) [1] came to 0.35. “ME66 (SGN-17 scFv-BLA, light chain T101 to His)”: the Index pH7.4 with p97 (melanotransferrin) [1] was determined as 1.36. Also, the Index pH6.5 with p97 (melanotransferrin) [2] stood at 1.73.
